In US20140037642A1 (Amgen, published 2014):

How the values were obtained:
hu INSR(ECD)-muIgG1Fc = target: T1, hu INSR(ECD)-muIgG1Fc (human; mouse, Glycosylated. 87% of the preparation was cleaved between the alpha and beta chains (RKRR site), which stay disulfide-linked. Dimer through the receptor and the murine Fc.); test: phage Fab ELISA, plate coated with INSR-mFc at 5 µg/ml
T1 construct: 87% processed into α and β chains; also called INSR(ECD)-muFc; INSR-mFc
Method: (§1) In 96-well 2-ml deep-well blocks, 480 μl/well 2xYT-CG broth was inoculated with 20 μl of overnight cultures of the individual clones, then incubated at 37° C., 300 rpm for 3 hours. To each well, 50 μl of 1:3 diluted M13KO7 helper phage were added to infect the cells. The block was incubated at 37° C. without shaking for 30 minutes, and then shaken gently for another 30 minutes at 150 rpm. The block was centrifuged at 3600 rpm for 20 minutes to pellet the infected cells. The cell pellet in each well was suspended into 480 μl of 2xYT-CK (2xYT broth containing 100 μg/ml carbenicillin and 40 μg/ml kanamycin), and incubated at 30° C. overnight for about 20 hours. The cell debris was separated by centrifugation at 3600 rpm for 20 minutes. The rescued phage supernatant was used in the phage ELISA to check for IGF-1R-specific, INSR-cross reactive, or mouse Fc binding of individual clones.
(§2) The coated plates were washed 3× with 300 μl/well of PBS. The washed plates were blocked with 300 μl/well 2% MPBS at room temperature for one hour. Meanwhile, rescued phages of individual clones were pre-blocked by mixing 170 μl of rescued phage with 170 μl of 4% MPBS. The blocked plates were washed 5× with 300 μl/well TBST (TBS: 10 mM Tris-HCl, pH 7.5, 1 mM EDTA, 150 mM NaCl; Tween-20. 0.1%). 100 μl/well of pre-blocked phage dilutions were distributed to each set of coated plate, which were incubated at room temperature on a rocker for 90 minutes. The plates were washed 5× with 300 μl/well TBST. 100 μl/well of anti-M13-HRP in 2% MPBS (1:3000 dilution, catalog number 27-9421-01, Amersham Pharmacia Biotech) were distributed, and plates were incubated at room temperature on rocker for one hour. The plates were washed 5× with 300 μl/well TBST. 100 μl/well of the substrate 1-Step™ ABTS (Pierce Biotechnology, Rockford, Ill., catalog number 37615) were added. Plates were incubated for one hour. OD₄₀₅ was measured for signal detection.

[1] = target: T2, hu IGF-1R(ECD)-C3-muIgG1Fc (human; mouse, Glycosylated. 60% of the preparation was cleaved between the alpha and beta chains (RKRR, mature positions 708-711), which stay disulfide-linked; 40% was unprocessed. Dimer through the …); test: phage Fab ELISA, plate coated with IGF-1R-C3-mFc at 5 µg/ml
T2 construct: 60% of the product was processed into α and β chains, 40% unprocessed; also called IGF-1R(ECD)-C3-muFc; IGF-1R-C3-muFc
Method: as §1, §2

Binder | binding result (hu INSR(ECD)-muIgG1Fc) | binding result [1]
L25H25 phage-displayed Fab (Fab, V domains shown) VH: QVQLQESGPGLVKPSGTLSLTCAVSGGSISSSNWWSWVRQPPGKGLEWIGEIYHSGSTNYNPSLKSRVTISVDKSKNQFSLKLSSVTAADTAVYYCASSGYDAFDIWGQGTTVTVSS VL: not shown | no binding | binds
L32H32 phage-displayed Fab (Fab, V domains shown) VH: QVQLQESGPGLVKPSGTLSLTCAVSGGSISSSNWWSWVRQPPGKGLEWIGEIYHSGSTNYNPSLKSRVTISVDKSKNQFSLKLSSVTAADTAVYYCARASVDAFDIWGQGTMVTVSS VL: not shown | no binding | binds
L36H36 phage-displayed Fab (Fab, V domains shown) VH: QVQLQQWGAGLLKPSETLSLTCAVYGGSFSGYYWSWIRQPPGKGLEWIGEINHSGSTNYNPSLKSRVTISVDTSKNQFSLKLSSVTAADTAVYYCARVGYSSGRDVDYWGQGTLVTVSS VL: NFMLTQPHSVSESPGKTVTISCTRSSGSIASNYVQWYQQRPGSSPTTVIYEDNQRPSGVPDRFSGSIDSSSNSASLTISGLKTEDEADYYCQSYDSSNVVFGGGTKLTVL | no binding | binds
L31H31 phage-displayed Fab (Fab, V domains shown) VH: EVQLVQSGGGVVQPGRSLRLSCAASGFTFSSYGMHWVRQAPGKGLEWVAVISYDGSNKYYADSVKGRFTISRDNSKNTLYLQMNSLRAEDTAVYYCAKAYSSGWYDYYGMDVWGQGTTVTVSS VL: DIQLTQSPSSLSASVGDRVTITCRSSQGIGYFLNWYQQEPGKAPKILISAASTLQSGVPSRFSGSGSGTDFTLSINNLQPADFATYYCQQSHSPPYTFGQGTKVEIK | no binding | binds
L29H29 phage-displayed Fab (Fab, V domains shown) VH: QVQLQESGPGLVKPSETLSLTCAVSGGSISSSNWWSWVRQPPGKGLEWIGEIYHSGSTNYNPSLKSRVTISVDKSKNQFSLKLSSVTAADTAVYYCARVGSGWYVDYWGQGTLVTVSS VL: not shown | no binding | binds
L7H7 phage-displayed Fab (Fab, V domains shown) VH: QVQLQESGPGLVKPSGTLSLTCAVSGGSISSSNWWSWVRQPPGKGLEWIGEIYHSGSTNYNPSLKSRVTISVDKSKNQFSLKLSSVTAADTAVYYCARFWDYYGMDVWGQGTTVTVSS VL: not shown | no binding | binds
L10H10 phage-displayed Fab (Fab, V domains shown) VH: EVQLVESGPGLVKPSGTLSLTCAVSGGSISSSNWWSWVRQPPGKGLEWIGEIYHSGSTNYNPSLKSRVTISVDKSKNQFSLKLSSVTAADTAVYYCARDYDIFGMDVWGQGTTVTVSS VL: not shown | no binding | binds
L3H3 phage-displayed Fab (Fab, V domains shown) VH: QVQLQESGPGLVKPSGTLSLTCAVSGGSISSSNWWSWVRQPPGKGLEWIGEIYHSGSTNYNPSLKSRVTISVDKSKNQFSLKLSSVTAADTAVYYCAKNLAAGAVAYWGQGTLVTVSS VL: not shown | no binding | binds
L6H6 phage-displayed Fab (Fab, V domains shown) VH: QVQLQESGPGLVKPSGTLSLTCAVSGGSISSSNWWSWVRQPPGKGLEWIGEIYHSGSTNYNPSLKSRVTISVDKSKNQFSLKLSSVTAADTAVYYCARDGQLDAFDIWGQGTMVTVSS VL: not shown | no binding | binds
L39H39 phage-displayed Fab (Fab, V domains shown) VH: EVQLVESGPGLVKPSGTLSLTCAVSGGSISSSNWWSWVRQPPGKGLEWIGEIYHSGSTNYNPSLKSRVTISVDKSKNQFSLKLSSVTAADTAVYYCARLSFADPFDIWGQGTMVTVSS VL: not shown | no binding | binds
L14H14 phage-displayed Fab (Fab, V domains shown) VH: QVQLQESGPGLVKPSGTLSLTCAVSGGSISSSNWWSWVRQPPGKGLEWIGEIYHSGSTNYNPSLKSRVTISVDKSKNQFSLKLSSVTAADTAVYYCARGLGDSSGYILWGQGTMVTVSS VL: not shown | no binding | binds
L33H33 phage-displayed Fab (Fab, V domains shown) VH: QVQLQESGPGLVKPSGTLSLTCAVSGGSISSSNWWSWVRQPPGKGLEWIGEIYHSGSTNYNPSLKSRVTISVDKSKNQFSLKLSSVTAADTAVYYCARGLGDSSGYILWGQGTMVTVSS VL: EIVLTQSPLSLPVTPGEPASISCRSSQSLLHSNGYNYLDWYLQKPGQSPQLLMYLVSNRASGVPERFSGSGSGTDFTLKISRVEAEDVGVYYCMQTLQTPLSFGQGTKLEIK | no binding | binds
L15H15 phage-displayed Fab (Fab, V domains shown) VH: QVQLQESGPGLVKPSGTLSLTCAVSGGSISSSNWWSWVRQPPGKGLEWIGEIYHSGSTNYNPSLKSRVTISVDKSKNQFSLKLSSVTAADTAVYYCARGLGDSSGYILWGQGTMVTVSS VL: DVVMTQSPLSLPVTPGEPASISCRSSQSLLHSNGYNYLDWYLQKPGQSPQLLIYLGSYRASGVPDRFSASGSGTDFTLKISRVEAEDVGVYYCMQALQTPITFGQGTRLEIK | no binding | binds
L38H38 phage-displayed Fab (Fab, V domains shown) VH: EVQLVESGPGLVKPSETLSLTCAVSGGSISSSNWWSWVRQPPGKGLEWIGEIYHSGSTNYNPSLKSRVTISVDKSKNQFSLKLSSVTAADTAVYYCARSTWSLDYWGQGTLVTVSS VL: not shown | no binding | binds
L27H27 phage-displayed Fab (Fab, V domains shown) VH: EVQLVQSGGGVVQPGTSLRLSCAASGFSFRSHGMHWVRQAPGKGLEWVAVISYDGSNKYYADSVKGRFTISRDNSKNTLYLQMNSLRAEDTAVYYCATIGPGGFDYWGQGTLVTVSS VL: not shown | no binding | binds
L34H34 phage-displayed Fab (Fab, V domains shown) VH: QVQLQQSGPGLVKPSGTLSLTCAVSGGSISSSNWWSWVRQPPGKGLEWIGEIYHSGSTNYNPSLKSRVTISVDKSKNQFSLKLSSVTPEDTAVYYCARDHGPFDYWGRGTLVTVSS VL: not shown | no binding | binds
L30H30 phage-displayed Fab (Fab, V domains shown) VH: QVQLQESGPGLVKPSGTLSLTCAVSGGSISSSNWWSWVRQPPGKGLEWIGEIYHSGSTNYNPSLKSRVTISVDKSKNQFSLKLSSVTAADTAVYYCARVSGYYYYGMDVWGQGTTVTVSS VL: not shown | no binding | binds
L37H37 phage-displayed Fab (Fab, V domains shown) VH: EVQLVESGPGLVKPSGTLSLTCAVSGGSISSSNWWSWIRQPPGKGLEWIGEIYHSGSTNYNPSLKSRVTISVDKSKNQFSLKLSSVTAADTAVYYCARDSSSWYYGMDVWGQGTTVTVSS VL: not shown | no binding | binds
L28H28 phage-displayed Fab (Fab, V domains shown) VH: QVQLQESGPGLVKPSETLSLTCTVSGGSIRNYYWSWIRQPPGKGLEWIGYISDSGNTNYNPSLKSRVTISVDTSKNQFSLKLTSVTATDTAAYFCARHRSSWAWYFDLWGRGTLVTVSS VL: SYVLTQPPSVSVSPGQTASITCSGDKLGDKYVGWYQQKAGQAPVLVIYQDNKRPSGIPERFSGSNSGNTASLTISGTQAMDEADYYCQAWDSGTVFGGGTKLTVL | no binding | binds
